Substitutions are numbered along the chain they refer to.
Assays:
Assay in all cases: ITC; β16β17 at 25–50 μM in the cell titrated with 15–20 injections to 2–2.5 eq of α0α1; one-site binding model; PBS (50 mM sodium phosphate, 150 mM NaCl, pH 7.04), 25 °C; mutants only against the wild-type partner
Details in all cases: both partners purified
[1] = target: T1, β16β17 C9A (human, UniProt P11277 1898-2083, C2012A)
T1 construct: erythrocyte β-spectrin, human, residues 1898-2083 (β16β17); mutant of m2; also called C2012A; source: E. coli C41(DE3), purified (Ni2+ agarose, thrombin cleavage, gel filtration)
T1 sequence (looked up): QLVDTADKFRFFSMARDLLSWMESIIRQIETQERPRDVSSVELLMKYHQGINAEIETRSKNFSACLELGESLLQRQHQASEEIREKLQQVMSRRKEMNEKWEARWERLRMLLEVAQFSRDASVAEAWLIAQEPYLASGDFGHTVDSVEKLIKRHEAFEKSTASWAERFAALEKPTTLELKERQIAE

[2] = target: T2, β16β17 C9G (human, UniProt P11277 1898-2083, C2012G)
T2 construct: erythrocyte β-spectrin, human, residues 1898-2083 (β16β17); mutant of m2; also called C2012G; source: E. coli C41(DE3), purified (Ni2+ agarose, thrombin cleavage, gel filtration)
T2 sequence (looked up): T1 sequence (looked up) with A115G

[3] = target: T3, β16β17 K43A (human, UniProt P11277 1898-2083, K2046A)
T3 construct: erythrocyte β-spectrin, human, residues 1898-2083 (β16β17); mutant of m2; also called K2046A; source: E. coli C41(DE3), purified (Ni2+ agarose, thrombin cleavage, gel filtration)
T3 sequence (looked up): T1 sequence (looked up) with A115C, K149A

[4] = target: T4, β16β17 K43G (human, UniProt P11277 1898-2083, K2046G)
T4 construct: erythrocyte β-spectrin, human, residues 1898-2083 (β16β17); mutant of m2; also called K2046G; source: E. coli C41(DE3), purified (Ni2+ agarose, thrombin cleavage, gel filtration)
T4 sequence (looked up): T1 sequence (looked up) with A115C, K149G

[5] = target: T5, β16β17 K46A (human, UniProt P11277 1898-2083, K2049A)
T5 construct: erythrocyte β-spectrin, human, residues 1898-2083 (β16β17); mutant of m2; also called K2049A; source: E. coli C41(DE3), purified (Ni2+ agarose, thrombin cleavage, gel filtration)
T5 sequence (looked up): T1 sequence (looked up) with A115C, K152A

[6] = target: T6, β16β17 K46G (human, UniProt P11277 1898-2083, K2049G)
T6 construct: erythrocyte β-spectrin, human, residues 1898-2083 (β16β17); mutant of m2; also called K2049G; source: E. coli C41(DE3), purified (Ni2+ agarose, thrombin cleavage, gel filtration)
T6 sequence (looked up): T1 sequence (looked up) with A115C, K152G

B1: α0α1 (erythrocyte α-spectrin residues 2–163), wild type (domain or fragment, human, UniProt P02549 2-163, looked up)
chain: EQFPKETVVESSGPKVLETAEEIQERRQEVLTRYQSFKERVAERGQKLEDSYHLQVFKRDADDLGKWIMEKVNILTDKSYEDPTNIQGKYQKHQSLEAEVQTKSRLMSELEKTREERFTMGHSAHEETKAHIEELRHLWDLLLELTLEKGDQLLRALKFQQY
notes: synthetic gene (GenScript) in a modified pRSETA plasmid; also called α1α0; source: E. coli C41(DE3), purified (Ni2+ agarose, thrombin cleavage, gel filtration)
Ka [1]: 2.7e+06 M⁻¹ | Ka [2]: 470000 M⁻¹ | Ka [3]: 1.8e+06 M⁻¹ | Ka [4]: 328000 M⁻¹ | Ka [5]: 520000 M⁻¹ | Ka [6]: 230000 M⁻¹

— publication PMC9082959, “Mechanism of Assembly of the Non-Covalent Spectrin Tetramerization Domain from Intrinsically Disordered Partners” (Journal of molecular biology, 2013)
